Data reported in patent US6518054B1, “Metallo-endopeptidases” (Rijksuniverstteit Te Groningen, priority 1997, dated 2003).

How the values were obtained:
[1] = format: physicochemical; conditions: buffer, pH 5.3
Method: Stabilities of TLPs were determined at different temperatures. Shown are the first-order inactivation curves for TLP-ste incubated at 80° C. (Δ) and 90° C. (+), thermolysin at 90° C. (Δ), and the 8-fold mutant at 100° C. (●), respectively. […] Samples, taken at the various time points, were quickly cooled on ice (15 s) and transferred to 50° C. to prevent cold denaturation. Residual activity was determined using casein (0.8%) as a substrate in 50 mM TrisHCl (pH 7.5), 5 mM CaCl2 as described previously (Eijsink, V. G. H., Veltman, O. R., Aukema, W., Vriend, G. & Venema, G. Nature Struct. Biol. 2, 374-379 (1995)).

[2] = First order thermal inactivation of TLP-ste variants at 75° C. in 5 mM or 0.2 mM CaCl2
[3] = Thermal stability (T50) at varying CaCl2 concentrations
Method: Thermal stability was measured, using varying CaCl2concentrations in the standard assay buffer (20 mM Na acetate, pH 5.3, 0.01% Triton X-100, 0.5% isopropanol, 62.5 mM NaCl). T50 is the temperature of incubation at which 50 percent of the initial proteolytic activity is lost during a 30 minutes incubation.

casein [4] = assay: Optimum temperature for activity with casein; format: biochemical; conditions: casein 0.8%, 30 minutes
Method: (§1) Specific activities for TLP-ste and the 8-fold mutant were determined using casein (0.8%) as a substrate in 50 mM Tris-HCl (pH 7.5), 5 mM CaCl2 at 37° C. […] (pH 7.0), 5 mM CaCl2, 5% or 1% DMSO, 0.5% isopropanol, 0.01% Triton X-100, 50 mM NaCl, with […] of substrate, by measuring the decrease in absorption at 345 nm (Î345=−317 M^−1·cm^−1). Stock solutions of the furylacryloylated dipeptides, (Sigma, St. Louis, […].) were prepared by dissolving 3-(-2-furylacryloyl)-L-glycyl-L-leucine amide (FaGLa) and 3-(-2-furylacryloyl)-L-alanyl-L-phenylalanine amide (FaAFa) in DMSO. The kcat/Km ratios of the enzymes were determined by varying the enzyme concentrations (over a 50 fold range) under pseudo-first order conditions by measuring the initial activity, essentially according to the method described by Feder^30. The Ki for phosphoramidon (N-[a-L-rhamnopyrano-syl-oxyhydroxyphophinyl]-L-leucyl-L-tryptophan) was determined by a 30 minute preincubation of a 100 pM protease solution with varying concentrations of the inhibitor (10^−8 to 10^−3 M), in 50 mM MOPS (pH 7.0), 5 mM CaCl2, 50 mM NaCl, prior to the addition of the furylacryloated substrate. For determination of the Ki FaAFa was used as the substrate. Since the Km of the substrate for the enzyme is higher than the concentration used, IC50 values were taken to be equal to Ki values. The optimum temperature for activity was determined by incubating proteases with casein (0.8%) in 50 mM Tris-HCl (pH 7.5), 5 mM CaCl2, at different temperatures for 30 minutes, after which the amount of released peptides, indicative for activity, was measured^11.

[5] = system: α-amylase from Bacillus licheniformis; assay: Hydrolysis of protease resistant α-amylase (SDS-PAGE); format: biochemical; conditions: 60 minutes
Method: As an example of the enzymatic activity of the 8-fold mutant we tested the hydrolysis of protease resistant α-amylase from Bacillus licheniformis by the 8-fold mutant. B. licheniformis α-amylase (1 mg/ml) in 50 mM MOPS, pH 7.0, 5 mM CaCl2, 0.01% Triton X-100 was incubated with purified TLP-ste (1 μg/ml), the 8-fold mutant or without protease for 60 minutes at the temperature indicated. The reaction volume was 500 μL. […] Precipitates (only observed in the 100° C. samples) were collected by centrifugation and redissolved in 500 μL 6 M Urea. Both supernatants and redissolved precipitates were subjected to standard SDS-PAGE, including pre-treatment with sample loading buffer (5 minutes at 100° C.). The samples were identical in size (20 μL supernatant and 20 μL dissolved precipitate). Gels were stained with Coomassie-brilliant blue.

[6] = Effect of denaturing agents on protease activity (FaGLa, 50° C.); format: biochemical
Method: Protease activities were determined in 50 mM MOPS (pH 7.0), 5 mM CaCl2, 50 mM NaCl, 0.01% Triton X-100, 0.5% isopropanol, using 100 μM FaGLa (3-(-2-furylacryloyl)-L-glycyl-L-leucine amide) as a substrate at 50° C. Enzymes and denaturing agents were preincubated in the reaction mixture at 50° C. for 15 minutes prior to the addition of the substrate. The reaction was followed by measuring the change in absorbance at 345 nm. […] Activities are expressed as percentage of the activity in the absence of denaturant.

casein [7] = assay: Specific activity with casein as substrate at 37° C.; format: biochemical; conditions: casein 0.8%, pH 7.5, 5 mM CaCl2
Method: as §1

B1: TLP-ste: broad-specificity metalloprotease (thermolysin-like protease) produced by Bacillus stearothermophilus CU21, SEQUENCE ID No. 1 (protein)
chain: VAGASTVGVGRGVLGDQKYINTTYSSYYGYYYLQDNTRGSGIFTYDGRNRTVLPGSLWTDGDNQFTASYDAAAVDAHYYAGVVYDYYKNVHGRLSYDGSNAAIRSTVHYGRGYNNAFWNGSQMVYGDGDGQTFLPFSGGIDVVGHELTHAVTDYTAGLVYQNESGAINEAMSDIFGTLVEFYANRNPDWEIGEDIYTPGVAGDALRSMSDPAKYGDPDHYSKRYTGTQDNGGVHTNSGIINKAAYLLSQGGVHYGVSVNGIGRDKMGKIFYRALVYYLTPTSNFSQLRAACVQAAADLYGSTSQEVNSVKQAFNAVGVY
[1]
  half-life 80° C.: 17.5 min
  half-life 90° C.: <2 min
  half-life 100° C.: <0.5 min
[2]
  Half-life ratio 5 mM/0.2 mM: 12
[3]; 0.2 mM CaCl2, 30 minutes incubation
  T50: 65.5 °C
[3]; 0.5 mM CaCl2, 30 minutes incubation
  T50: 67.5 °C
[3]; 2.5 mM CaCl2, 30 minutes incubation
  T50: 72.9 °C
[3]; 5.0 mM CaCl2, 30 minutes incubation
  T50: 75.2 °C
[3]; 7.5 mM CaCl2, 30 minutes incubation
  T50: 77.0 °C
[3]; 12.5 mM CaCl2, 30 minutes incubation
  T50: 77.9 °C
Casein [4]
  Topt (optimum temperature for activity): 74 °C
[5]; 80° C. and lower
  degradation of B. licheniformis α-amylase: No significant degradation
[5]; 100° C.
  hydrolysis of B. licheniformis α-amylase: no hydrolysis had occurred
[6]; GndHCl 0 M
  relative activity: 100%
[6]; GndHCl 1.0 M
  relative activity: 99%
[6]; GndHCl 2.0 M
  relative activity: 62%
[6]; GndHCl 3.0 M
  relative activity: 0%
[6]; GndHCl 4.0 M
  relative activity: 0%
[6]; GndHCl 5.0 M
  relative activity: 0%
[6]; GndHCl 5.5 M
  relative activity: 0%
[6]; GndHCl 6.0 M
  relative activity: 0%
[6]; SDS 0 % w/v
  relative activity: 100%
[6]; SDS 0.25 % w/v
  relative activity: 72%
[6]; SDS 0.5 % w/v
  relative activity: 37%
[6]; SDS 0.75 % w/v
  relative activity: 9.6%
[6]; SDS 1.0 % w/v
  relative activity: 0%
[6]; SDS 1.25 % w/v
  relative activity: 0%
[6]; SDS 1.5 % w/v
  relative activity: 0%
[6]; SDS 2.0 % w/v
  relative activity: 0%
[6]; Urea 0 M
  relative activity: 100%
[6]; Urea 0.5 M
  relative activity: 96%
[6]; Urea 1.0 M
  relative activity: 87%
[6]; Urea 2.0 M
  relative activity: 75%
[6]; Urea 3.0 M
  relative activity: 3%
[6]; Urea 4.0 M
  relative activity: 0%
[6]; Urea 5.0 M
  relative activity: 0%
[6]; Urea 7.5 M
  relative activity: 0%
Casein [7]
  Specific activity casein: 3.5 ± 0.7 (U/mg) × 10^−3
